Measurements: patent US20170306033A1 (Amgen, published 2017)
Read-outs that look alike come from different tables or passages of the source.

T1: human PAC1 receptor (human, UniProt P41586 21-468)
T1 sequence: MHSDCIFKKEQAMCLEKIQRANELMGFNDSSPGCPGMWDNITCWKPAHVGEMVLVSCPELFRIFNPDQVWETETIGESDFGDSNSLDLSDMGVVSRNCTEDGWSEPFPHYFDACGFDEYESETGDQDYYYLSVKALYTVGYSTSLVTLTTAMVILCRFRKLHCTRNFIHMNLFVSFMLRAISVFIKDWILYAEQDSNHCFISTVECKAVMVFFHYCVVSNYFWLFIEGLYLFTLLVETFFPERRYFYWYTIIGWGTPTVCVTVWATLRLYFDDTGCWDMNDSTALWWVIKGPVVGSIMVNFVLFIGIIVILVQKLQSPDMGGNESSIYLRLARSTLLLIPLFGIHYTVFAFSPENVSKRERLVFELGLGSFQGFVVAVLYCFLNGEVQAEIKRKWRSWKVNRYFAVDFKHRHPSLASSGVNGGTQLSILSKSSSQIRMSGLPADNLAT

B1: iPS:386742 (bispecific antibody, human IgG1, kappa, N297G)
light: DIQLTQSPSFLSASVGDRVTITCRASQSIGRSLHWYQQKPGKAPKLLIKYASQSLSGVPSRFSGSGSGTEFTLTISSLQPEDFATYYCHQSSRLPFTFGPGTKVDIKRTVAAPSVFIFPPSDEQLKSGTASVVCLLNNFYPREAKVQWKVDNALQSGNSQESVTEQDSKDSTYSLSSTLTLSKADYEKHKVYACEVTHQGLSSPVTKSFNRGEC
heavy: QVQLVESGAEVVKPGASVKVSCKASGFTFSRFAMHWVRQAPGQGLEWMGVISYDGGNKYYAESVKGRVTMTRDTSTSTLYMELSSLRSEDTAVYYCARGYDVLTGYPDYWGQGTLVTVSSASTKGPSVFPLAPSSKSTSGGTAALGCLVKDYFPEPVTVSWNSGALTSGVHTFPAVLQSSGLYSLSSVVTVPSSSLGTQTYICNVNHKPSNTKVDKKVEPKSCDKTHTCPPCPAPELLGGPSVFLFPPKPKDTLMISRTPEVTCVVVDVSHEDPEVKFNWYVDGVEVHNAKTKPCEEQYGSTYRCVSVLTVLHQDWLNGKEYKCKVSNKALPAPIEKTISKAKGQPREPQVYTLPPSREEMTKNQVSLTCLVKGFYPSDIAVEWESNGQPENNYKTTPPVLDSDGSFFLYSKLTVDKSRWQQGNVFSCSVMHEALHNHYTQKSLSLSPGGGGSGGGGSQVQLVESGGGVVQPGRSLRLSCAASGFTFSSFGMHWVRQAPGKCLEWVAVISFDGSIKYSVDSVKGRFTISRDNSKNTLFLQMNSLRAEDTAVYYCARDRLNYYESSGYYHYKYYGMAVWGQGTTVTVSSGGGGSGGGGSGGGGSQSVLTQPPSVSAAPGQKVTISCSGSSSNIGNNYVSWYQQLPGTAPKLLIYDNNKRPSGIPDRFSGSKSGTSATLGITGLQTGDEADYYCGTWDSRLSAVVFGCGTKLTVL
B2: iPS:386752 (bispecific antibody, human IgG1, kappa, N297G)
light: DIQLTQSPSFLSASVGDRVTITCRASQSIGRSLHWYQQKPGKAPKLLIKYASQSLSGVPSRFSGSGSGTEFTLTISSLQPEDFATYYCHQSSRLPFTFGPGTKVDIKRTVAAPSVFIFPPSDEQLKSGTASVVCLLNNFYPREAKVQWKVDNALQSGNSQESVTEQDSKDSTYSLSSTLTLSKADYEKHKVYACEVTHQGLSSPVTKSFNRGEC
heavy: not shown
B3: iPS:386758 (bispecific antibody, human IgG1, kappa, N297G)
light: DIQLTQSPSFLSASVGDRVTITCRASQSIGRSLHWYQQKPGKAPKLLIKYASQSLSGVPSRFSGSGSGTEFTLTISSLQPEDFATYYCHQSSRLPFTFGPGTKVDIKRTVAAPSVFIFPPSDEQLKSGTASVVCLLNNFYPREAKVQWKVDNALQSGNSQESVTEQDSKDSTYSLSSTLTLSKADYEKHKVYACEVTHQGLSSPVTKSFNRGEC
heavy: not shown
B4: iPS:386744 (bispecific antibody, human IgG1, kappa, N297G)
light: DIQLTQSPSFLSASVGDRVTITCRASQSIGRSLHWYQQKPGKAPKLLIKYASQSLSGVPSRFSGSGSGTEFTLTISSLQPEDFATYYCHQSSRLPFTFGPGTKVDIKRTVAAPSVFIFPPSDEQLKSGTASVVCLLNNFYPREAKVQWKVDNALQSGNSQESVTEQDSKDSTYSLSSTLTLSKADYEKHKVYACEVTHQGLSSPVTKSFNRGEC
heavy: not shown
B5: iPS:386754 (bispecific antibody, human IgG1, kappa, N297G)
light: DIQLTQSPSFLSASVGDRVTITCRASQSIGRSLHWYQQKPGKAPKLLIKYASQSLSGVPSRFSGSGSGTEFTLTISSLQPEDFATYYCHQSSRLPFTFGPGTKVDIKRTVAAPSVFIFPPSDEQLKSGTASVVCLLNNFYPREAKVQWKVDNALQSGNSQESVTEQDSKDSTYSLSSTLTLSKADYEKHKVYACEVTHQGLSSPVTKSFNRGEC
heavy: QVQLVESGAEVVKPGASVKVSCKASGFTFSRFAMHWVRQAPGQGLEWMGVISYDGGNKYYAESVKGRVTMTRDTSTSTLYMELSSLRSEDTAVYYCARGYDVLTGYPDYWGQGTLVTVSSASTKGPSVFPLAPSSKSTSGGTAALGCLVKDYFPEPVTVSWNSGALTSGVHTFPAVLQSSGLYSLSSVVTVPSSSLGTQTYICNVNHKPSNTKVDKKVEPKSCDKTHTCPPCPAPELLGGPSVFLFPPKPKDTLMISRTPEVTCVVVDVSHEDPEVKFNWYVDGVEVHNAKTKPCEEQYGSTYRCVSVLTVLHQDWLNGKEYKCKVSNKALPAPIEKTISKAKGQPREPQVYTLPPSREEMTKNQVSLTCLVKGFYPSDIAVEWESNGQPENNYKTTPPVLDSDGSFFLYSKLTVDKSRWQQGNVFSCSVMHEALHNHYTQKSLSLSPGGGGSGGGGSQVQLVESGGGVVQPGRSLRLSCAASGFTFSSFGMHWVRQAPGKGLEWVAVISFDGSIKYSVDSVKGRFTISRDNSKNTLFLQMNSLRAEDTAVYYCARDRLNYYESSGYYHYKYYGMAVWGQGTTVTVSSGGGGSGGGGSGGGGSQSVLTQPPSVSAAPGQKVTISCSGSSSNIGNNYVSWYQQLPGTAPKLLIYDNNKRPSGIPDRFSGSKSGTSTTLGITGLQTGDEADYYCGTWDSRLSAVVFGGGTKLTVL
B6: iPS:386760 (bispecific antibody, human IgG1, kappa, N297G)
light: DIQLTQSPSFLSASVGDRVTITCRASQSIGRSLHWYQQKPGKAPKLLIKYASQSLSGVPSRFSGSGSGTEFTLTISSLQPEDFATYYCHQSSRLPFTFGPGTKVDIKRTVAAPSVFIFPPSDEQLKSGTASVVCLLNNFYPREAKVQWKVDNALQSGNSQESVTEQDSKDSTYSLSSTLTLSKADYEKHKVYACEVTHQGLSSPVTKSFNRGEC
heavy: not shown
B7: iPS:386750 (bispecific antibody, human IgG1, kappa, N297G)
light: DIQLTQSPSFLSASVGDRVTITCRASQSIGRSLHWYQQKPGKAPKLLIKYASQSLSGVPSRFSGSGSGTEFTLTISSLQPEDFATYYCHQSSRLPFTFGPGTKVDIKRTVAAPSVFIFPPSDEQLKSGTASVVCLLNNFYPREAKVQWKVDNALQSGNSQESVTEQDSKDSTYSLSSTLTLSKADYEKHKVYACEVTHQGLSSPVTKSFNRGEC
heavy: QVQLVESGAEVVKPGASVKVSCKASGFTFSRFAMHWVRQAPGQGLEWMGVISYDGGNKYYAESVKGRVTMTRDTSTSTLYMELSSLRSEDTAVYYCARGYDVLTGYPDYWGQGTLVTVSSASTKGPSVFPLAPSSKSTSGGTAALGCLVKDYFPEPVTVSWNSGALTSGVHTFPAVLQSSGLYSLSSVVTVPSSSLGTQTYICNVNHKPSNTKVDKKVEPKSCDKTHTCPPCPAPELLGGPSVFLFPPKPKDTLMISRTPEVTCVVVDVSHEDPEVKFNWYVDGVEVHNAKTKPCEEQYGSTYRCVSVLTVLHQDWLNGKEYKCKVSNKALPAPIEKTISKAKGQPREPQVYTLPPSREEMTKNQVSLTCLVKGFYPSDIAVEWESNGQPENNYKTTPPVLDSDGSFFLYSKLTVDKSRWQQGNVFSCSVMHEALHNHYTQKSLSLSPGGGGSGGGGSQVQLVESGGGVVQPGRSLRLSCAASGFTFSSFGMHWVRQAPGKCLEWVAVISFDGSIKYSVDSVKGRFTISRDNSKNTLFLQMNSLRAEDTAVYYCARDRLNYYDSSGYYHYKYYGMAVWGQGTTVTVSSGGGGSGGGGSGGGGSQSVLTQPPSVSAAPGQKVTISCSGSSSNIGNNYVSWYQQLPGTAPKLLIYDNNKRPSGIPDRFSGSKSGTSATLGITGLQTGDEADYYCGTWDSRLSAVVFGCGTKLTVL
B8: iPS:386762 (bispecific antibody, human IgG1, kappa, N297G)
light: DIQLTQSPSFLSASVGDRVTITCRASQSIGRSLHWYQQKPGKAPKLLIKYASQSLSGVPSRFSGSGSGTEFTLTISSLQPEDFATYYCHQSSRLPFTFGPGTKVDIKRTVAAPSVFIFPPSDEQLKSGTASVVCLLNNFYPREAKVQWKVDNALQSGNSQESVTEQDSKDSTYSLSSTLTLSKADYEKHKVYACEVTHQGLSSPVTKSFNRGEC
heavy: not shown
B9: iPS:386746 (bispecific antibody, human IgG1, kappa, N297G)
light: DIQLTQSPSFLSASVGDRVTITCRASQSIGRSLHWYQQKPGKAPKLLIKYASQSLSGVPSRFSGSGSGTEFTLTISSLQPEDFATYYCHQSSRLPFTFGPGTKVDIKRTVAAPSVFIFPPSDEQLKSGTASVVCLLNNFYPREAKVQWKVDNALQSGNSQESVTEQDSKDSTYSLSSTLTLSKADYEKHKVYACEVTHQGLSSPVTKSFNRGEC
heavy: not shown
B10: iPS:386756 (bispecific antibody, human IgG1, kappa, N297G)
light: DIQLTQSPSFLSASVGDRVTITCRASQSIGRSLHWYQQKPGKAPKLLIKYASQSLSGVPSRFSGSGSGTEFTLTISSLQPEDFATYYCHQSSRLPFTFGPGTKVDIKRTVAAPSVFIFPPSDEQLKSGTASVVCLLNNFYPREAKVQWKVDNALQSGNSQESVTEQDSKDSTYSLSSTLTLSKADYEKHKVYACEVTHQGLSSPVTKSFNRGEC
heavy: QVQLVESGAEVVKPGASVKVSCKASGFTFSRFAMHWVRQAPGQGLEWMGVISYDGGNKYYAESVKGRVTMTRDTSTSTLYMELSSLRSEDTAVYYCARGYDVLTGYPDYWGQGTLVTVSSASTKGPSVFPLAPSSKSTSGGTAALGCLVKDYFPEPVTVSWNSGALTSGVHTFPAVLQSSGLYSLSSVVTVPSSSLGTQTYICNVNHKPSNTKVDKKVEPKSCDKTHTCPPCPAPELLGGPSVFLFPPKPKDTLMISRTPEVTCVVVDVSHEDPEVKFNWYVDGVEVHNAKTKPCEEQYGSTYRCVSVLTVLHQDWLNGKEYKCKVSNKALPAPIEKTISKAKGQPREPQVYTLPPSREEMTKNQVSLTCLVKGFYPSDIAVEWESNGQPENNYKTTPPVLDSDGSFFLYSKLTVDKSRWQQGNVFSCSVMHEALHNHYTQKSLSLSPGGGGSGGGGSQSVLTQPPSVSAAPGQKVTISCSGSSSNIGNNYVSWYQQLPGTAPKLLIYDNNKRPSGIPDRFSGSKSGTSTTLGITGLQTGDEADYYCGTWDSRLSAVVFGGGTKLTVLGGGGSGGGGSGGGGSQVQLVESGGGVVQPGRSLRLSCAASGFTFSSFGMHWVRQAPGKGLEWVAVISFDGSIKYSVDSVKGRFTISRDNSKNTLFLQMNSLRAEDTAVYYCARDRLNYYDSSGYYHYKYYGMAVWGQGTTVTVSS
B11: iPS:392475 (bispecific antibody, human IgG1, kappa, lambda, N297G)
light: DIQLTQSPSFLSASVGDRVTITCRASQSIGRSLHWYQQKPGKAPKLLIKYASQSLSGVPSRFSGSGSGTEFTLTISSLQPEDFATYYCHQSSRLPFTFGPGTKVDIKRTVAAPSVFIFPPSDEQLKSGTASVVCLLNNFYPREAKVQWKVDNALQSGNSQESVTEQDSKDSTYSLESTLTLSKADYEKHKVYACEVTHQGLSSPVTKSFNRGEC
heavy: not shown
chain: QVQLVESGGGVVQPGRSLRLSCAASGFTFSSFGMHWVRQAPGKGLEWVAVISFDGSIKYSVDSVKGRFTISRDNSKNTLFLQMNSLRAEDTAVYYCARDRLNYYESSGYYHYKYYGMAVWGQGTTVTVSSGQPKANPTVTLFPPSSEELQANKATLVCLISDFYPGAVTVAWKADGSPVKAGVETTKPSKQSNNKYAAESYLSLTPEQWKSHRSYSCQVTHEGSTVEKTVAPTECS
B12: iPS:386748 (bispecific antibody, human IgG1, kappa, N297G)
light: DIQLTQSPSFLSASVGDRVTITCRASQSIGRSLHWYQQKPGKAPKLLIKYASQSLSGVPSRFSGSGSGTEFTLTISSLQPEDFATYYCHQSSRLPFTFGPGTKVDIKRTVAAPSVFIFPPSDEQLKSGTASVVCLLNNFYPREAKVQWKVDNALQSGNSQESVTEQDSKDSTYSLSSTLTLSKADYEKHKVYACEVTHQGLSSPVTKSFNRGEC
heavy: not shown
B13: iPS:386764 (bispecific antibody, human IgG1, kappa, N297G)
light: DIQLTQSPSFLSASVGDRVTITCRASQSIGRSLHWYQQKPGKAPKLLIKYASQSLSGVPSRFSGSGSGTEFTLTISSLQPEDFATYYCHQSSRLPFTFGPGTKVDIKRTVAAPSVFIFPPSDEQLKSGTASVVCLLNNFYPREAKVQWKVDNALQSGNSQESVTEQDSKDSTYSLSSTLTLSKADYEKHKVYACEVTHQGLSSPVTKSFNRGEC
heavy: not shown
B14: iPS:386715 (bispecific antibody, human IgG1, lambda, N297G)
light: QSVLTQPPSVSAAPGQKVTISCSGSSSNIGNNYVSWYQQLPGTAPKLLIYDNNKRPSGIPDRFSGSKSGTSTTLGITGLQTGDEADYYCGTWDSRLSAVVFGGGTKLTVLGQPKANPTVTLFPPSSEELQANKATLVCLISDFYPGAVTVAWKADGSPVKAGVETTKPSKQSNNKYAASSYLSLTPEQWKSHRSYSCQVTHEGSTVEKTVAPTECS
heavy: not shown
B15: iPS:386721 (bispecific antibody, human IgG1, lambda, N297G)
light: QSVLTQPPSVSAAPGQKVTISCSGSSSNIGNNYVSWYQQLPGTAPKLLIYDNNKRPSGIPDRFSGSKSGTSATLAITGLQTGDEADYYCGTWDSRLSAVVFGGGTKLTVLGQPKANPTVTLFPPSSEELQANKATLVCLISDFYPGAVTVAWKADGSPVKAGVETTKPSKQSNNKYAASSYLSLTPEQWKSHRSYSCQVTHEGSTVEKTVAPTECS
heavy: not shown
B16: iPS:386723 (bispecific antibody, human IgG1, lambda, N297G)
light: QSVLTQPPSVSAAPGQKVTISCSGSSSNIGNNYVSWYQQLPGTAPKLLIYDNNKRPSGIPDRFSGSKSGTSATLGITGLQTGDEADYYCGTWDSRLSAVVFGGGTKLTVLGQPKANPTVTLFPPSSEELQANKATLVCLISDFYPGAVTVAWKADGSPVKAGVETTKPSKQSNNKYAASSYLSLTPEQWKSHRSYSCQVTHEGSTVEKTVAPTECS
heavy: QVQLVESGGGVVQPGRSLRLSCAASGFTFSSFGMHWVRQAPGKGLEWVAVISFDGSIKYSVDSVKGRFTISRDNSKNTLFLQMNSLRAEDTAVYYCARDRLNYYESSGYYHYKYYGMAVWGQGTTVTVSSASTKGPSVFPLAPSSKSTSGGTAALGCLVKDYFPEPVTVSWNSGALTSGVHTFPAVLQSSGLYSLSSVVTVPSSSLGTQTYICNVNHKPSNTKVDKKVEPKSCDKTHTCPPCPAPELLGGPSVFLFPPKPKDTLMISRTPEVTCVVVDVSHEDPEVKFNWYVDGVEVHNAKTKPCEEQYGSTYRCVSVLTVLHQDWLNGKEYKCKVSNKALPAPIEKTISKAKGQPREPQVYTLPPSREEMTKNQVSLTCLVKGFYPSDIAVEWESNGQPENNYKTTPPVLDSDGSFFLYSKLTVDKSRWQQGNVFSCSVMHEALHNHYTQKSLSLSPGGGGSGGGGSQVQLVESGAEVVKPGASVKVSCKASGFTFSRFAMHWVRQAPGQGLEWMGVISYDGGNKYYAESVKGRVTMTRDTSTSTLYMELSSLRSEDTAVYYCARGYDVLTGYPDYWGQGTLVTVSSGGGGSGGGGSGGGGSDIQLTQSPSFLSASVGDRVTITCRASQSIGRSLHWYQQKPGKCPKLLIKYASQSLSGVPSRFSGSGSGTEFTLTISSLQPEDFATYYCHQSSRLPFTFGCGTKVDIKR
B17: iPS:386717 (bispecific antibody, human IgG1, lambda, N297G)
light: QSVLTQPPSVSAAPGQKVTISCSGSSSNIGNNYVSWYQQLPGTAPKLLIYDNNKRPSGIPDRFSGSKSGTSTTLGITGLQTGDEADYYCGTWDSRLSAVVFGGGTKLTVLGQPKANPTVTLFPPSSEELQANKATLVCLISDFYPGAVTVAWKADGSPVKAGVETTKPSKQSNNKYAASSYLSLTPEQWKSHRSYSCQVTHEGSTVEKTVAPTECS
heavy: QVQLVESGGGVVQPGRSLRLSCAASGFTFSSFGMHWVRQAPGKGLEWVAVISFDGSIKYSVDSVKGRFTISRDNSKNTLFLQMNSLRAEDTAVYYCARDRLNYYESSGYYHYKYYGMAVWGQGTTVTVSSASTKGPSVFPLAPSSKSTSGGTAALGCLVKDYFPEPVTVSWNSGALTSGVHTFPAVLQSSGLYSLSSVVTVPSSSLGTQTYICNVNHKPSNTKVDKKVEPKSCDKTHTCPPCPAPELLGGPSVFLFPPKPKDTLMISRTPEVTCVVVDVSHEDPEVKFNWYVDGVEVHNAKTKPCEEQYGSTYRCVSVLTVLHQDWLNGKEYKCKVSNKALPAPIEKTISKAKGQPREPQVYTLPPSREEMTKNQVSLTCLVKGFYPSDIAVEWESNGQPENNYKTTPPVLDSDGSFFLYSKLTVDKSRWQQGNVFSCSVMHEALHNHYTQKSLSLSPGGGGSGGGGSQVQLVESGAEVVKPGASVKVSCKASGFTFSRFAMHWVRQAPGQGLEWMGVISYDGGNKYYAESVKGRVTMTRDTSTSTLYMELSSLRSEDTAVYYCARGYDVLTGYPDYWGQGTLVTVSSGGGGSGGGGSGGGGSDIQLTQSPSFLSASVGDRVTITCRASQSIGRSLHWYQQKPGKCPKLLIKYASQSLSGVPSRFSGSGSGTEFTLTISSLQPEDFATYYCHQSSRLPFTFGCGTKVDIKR
B18: iPS:386719 (bispecific antibody, human IgG1, lambda, N297G)
light: QSVLTQPPSVSAAPGQKVTISCSGSSSNIGNNYVSWYQQLPGTAPKLLIYDNNKRPSGIPDRFSGSKSGTSATLGITGLQTGDEADYYCGTWDSRLSAVVFGGGTKLTVLGQPKANPTVTLFPPSSEELQANKATLVCLISDFYPGAVTVAWKADGSPVKAGVETTKPSKQSNNKYAASSYLSLTPEQWKSHRSYSCQVTHEGSTVEKTVAPTECS
heavy: not shown

Legend:
Assay in all cases: cell-based or functional assay
human PAC1 receptor [1] = molecular target: T1, human PAC1 receptor
human CGRP receptor [2] = molecular target: T2, human CGRP receptor (human, UniProt Q16602 23-461; O60894 27-148)
human PAC1 receptor [3] = molecular target: T1, human PAC1 receptor; remark: listed apart in the source
human CGRP receptor [4] = molecular target: T2, human CGRP receptor; remark: listed apart in the source

T2 sequence (Q16602 23-461 limits assumed, chain 1 of 2): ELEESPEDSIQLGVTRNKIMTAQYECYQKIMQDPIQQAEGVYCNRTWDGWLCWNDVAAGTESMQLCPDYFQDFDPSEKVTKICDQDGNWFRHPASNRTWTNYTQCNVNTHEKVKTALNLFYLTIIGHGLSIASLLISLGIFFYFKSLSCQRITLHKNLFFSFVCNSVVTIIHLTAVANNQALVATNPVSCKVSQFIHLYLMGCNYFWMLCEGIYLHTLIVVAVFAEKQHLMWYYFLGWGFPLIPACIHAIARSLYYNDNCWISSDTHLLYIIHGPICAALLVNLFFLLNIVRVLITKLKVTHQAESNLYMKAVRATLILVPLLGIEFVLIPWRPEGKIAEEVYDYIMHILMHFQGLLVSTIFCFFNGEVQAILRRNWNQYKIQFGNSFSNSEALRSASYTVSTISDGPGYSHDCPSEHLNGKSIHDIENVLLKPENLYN
T2 sequence (O60894 27-148 limits assumed, chain 2 of 2): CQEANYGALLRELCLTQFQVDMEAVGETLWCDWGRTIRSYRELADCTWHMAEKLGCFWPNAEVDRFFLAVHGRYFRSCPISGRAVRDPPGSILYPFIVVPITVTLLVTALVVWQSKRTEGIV

Binder	Human PAC1 Receptor IC50 (human PAC1 receptor [1]) [nM]	Human CGRP Receptor IC50 (human CGRP receptor [2]) [nM]	Human PAC1 Receptor IC50 (human PAC1 receptor [3]) [nM]	Human CGRP Receptor IC50 (human CGRP receptor [4]) [nM]
B1	6.39	0.61		
B2	6.08	0.62		
B3	4.11	2.32		
B4	3.63	0.61		
B5	5.74	0.54		
B6	4.67	2.11		
B7	4.54	0.58		
B8	3.55	2.8		
B9	3.28	0.79		
B10	7.29	1.88		
B11			4.78	20.4
B12	2.85	0.63		
B13	11.9	2.61		
B14	689	0.43		
B15	197	0.22		
B16	248	0.27		
B17	580	0.33		
B18	940	0.41		
